In patent publication EP4703382A1 (Kanglitai Biomedical (Qingdao) Co., Ltd., dated 2026):
Changes are numbered by the printed parent chain. Where “and” joins values, the source holds several entries; their conditions need not be identical. Equal values may be shown once. Read-outs that look alike come from different tables or passages of the source.

Key:
[1] = molecular target: T1, human PDL1-Fc fusion protein (human); assay: ELISA, human PDL1-Fc coated 200 ng/well, anti-His HRP
T1 construct: also called human PDL1-Fc recombinant protein

[2] = molecular target: T1, human PDL1-Fc fusion protein; assay: as above; remark: listed apart in the source
[3] = molecular target: T1, human PDL1-Fc fusion protein; assay: BLI (ForteBIO Octet QKe), PDL1-Fc loaded, analyte 100 nM
[4] = molecular target: T2, human PD-L1 expressed on Raji cells (human, UniProt Q9NZQ7 19-290); assay: flow cytometry competition on Raji-PDL1 cells, competitor PD1-Fc
T2 construct: whole, on cells; also called Raji-PDL1; PDL1 protein expressed on Raji cells

[5] = molecular target: T2, human PD-L1 expressed on Raji cells; assay: as above; remark: listed apart in the source
[6] = molecular target: T3, recombinant protein PD-L1-His (human, UniProt Q9NZQ7 19-238); assay: competitive ELISA, PDL1-his coated, competitor PD1-Fc 50 µg/mL
T3 construct: also called PD-L1-his fusion protein; human PDL1-his protein

[7] = molecular target: T2, human PD-L1 expressed on Raji cells; assay: flow cytometry on Raji cells expressing human PD-L1, anti-His FITC
[8] = molecular target: T3, recombinant protein PD-L1-His; assay: competitive ELISA, PDL1-his coated, competitor PD1-Fc 50 µg/mL; remark: listed apart in the source
HAS = molecular target: T4, HAS (UniProt P02768 25-609); assay: ELISA, 200 ng/well coated, anti-His HRP
T4 construct: unrelated protein of the specificity ELISA; label read as HSA

BSA = molecular target: T5, BSA (UniProt P02769 25-607); assay: ELISA, 200 ng/well coated, anti-His HRP
T5 construct: unrelated protein of the specificity ELISA

[9] = molecular target: T1, human PDL1-Fc fusion protein; assay: BLI (ForteBIO Octet QKe), PDL1-Fc loaded, analyte 100 nM; remark: listed apart in the source
[10] = molecular target: T1, human PDL1-Fc fusion protein; assay: as above; remark: listed apart in the source
[11] = molecular target: T1, human PDL1-Fc fusion protein; assay: ELISA, human PDL1-Fc coated 200 ng/well, anti-His HRP; remark: listed apart in the source
[12] = molecular target: T1, human PDL1-Fc fusion protein; assay: as above; remark: listed apart in the source
[13] = molecular target: T1, human PDL1-Fc fusion protein; assay: as above; remark: listed apart in the source

T3 sequence (Q9NZQ7 19-238 limits assumed): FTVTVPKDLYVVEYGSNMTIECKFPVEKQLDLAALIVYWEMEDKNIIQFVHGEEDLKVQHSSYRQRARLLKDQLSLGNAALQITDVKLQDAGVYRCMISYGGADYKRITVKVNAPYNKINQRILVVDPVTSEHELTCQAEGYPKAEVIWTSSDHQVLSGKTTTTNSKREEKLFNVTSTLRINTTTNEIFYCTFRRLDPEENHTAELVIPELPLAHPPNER
T5 sequence (P02769 25-607 limits assumed): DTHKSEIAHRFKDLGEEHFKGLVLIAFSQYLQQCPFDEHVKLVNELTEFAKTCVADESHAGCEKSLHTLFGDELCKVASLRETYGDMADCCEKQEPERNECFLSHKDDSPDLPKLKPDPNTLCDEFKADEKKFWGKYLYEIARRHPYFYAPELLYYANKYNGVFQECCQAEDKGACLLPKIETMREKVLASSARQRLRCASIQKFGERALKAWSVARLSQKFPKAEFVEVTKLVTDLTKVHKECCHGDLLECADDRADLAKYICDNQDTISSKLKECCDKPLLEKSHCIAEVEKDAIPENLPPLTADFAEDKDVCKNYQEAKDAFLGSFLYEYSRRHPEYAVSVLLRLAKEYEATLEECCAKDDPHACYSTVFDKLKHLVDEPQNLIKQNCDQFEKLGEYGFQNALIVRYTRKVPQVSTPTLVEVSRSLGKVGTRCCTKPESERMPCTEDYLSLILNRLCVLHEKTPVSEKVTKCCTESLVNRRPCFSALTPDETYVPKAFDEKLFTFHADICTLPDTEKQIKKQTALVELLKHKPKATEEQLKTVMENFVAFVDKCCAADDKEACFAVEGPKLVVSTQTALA
T1 sequence (chain, as listed by the source limits assumed): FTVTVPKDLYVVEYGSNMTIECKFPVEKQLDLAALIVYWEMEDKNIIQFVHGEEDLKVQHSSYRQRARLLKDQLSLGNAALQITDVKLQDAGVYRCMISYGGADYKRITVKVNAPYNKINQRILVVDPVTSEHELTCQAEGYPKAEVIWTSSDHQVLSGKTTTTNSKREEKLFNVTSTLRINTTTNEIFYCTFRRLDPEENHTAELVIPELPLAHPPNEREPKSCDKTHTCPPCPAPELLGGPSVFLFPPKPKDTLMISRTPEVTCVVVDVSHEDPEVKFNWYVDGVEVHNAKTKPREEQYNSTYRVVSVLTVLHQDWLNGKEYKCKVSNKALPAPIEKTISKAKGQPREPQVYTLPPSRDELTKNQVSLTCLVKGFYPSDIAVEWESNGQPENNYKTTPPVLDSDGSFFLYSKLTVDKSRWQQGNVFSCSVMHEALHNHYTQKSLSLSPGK
T2 sequence (Q9NZQ7 19-290): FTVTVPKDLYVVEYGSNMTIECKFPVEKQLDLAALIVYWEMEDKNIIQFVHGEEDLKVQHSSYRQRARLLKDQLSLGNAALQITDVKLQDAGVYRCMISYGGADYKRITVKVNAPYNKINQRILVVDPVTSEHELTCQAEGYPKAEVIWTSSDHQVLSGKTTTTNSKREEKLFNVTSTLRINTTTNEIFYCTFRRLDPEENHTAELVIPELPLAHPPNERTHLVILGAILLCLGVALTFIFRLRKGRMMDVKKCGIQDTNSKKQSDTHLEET

B1: PDL1-1 (VHH)
VHH: QVQLQESGGGLVQPGGSLTLSCAASGFTVSNSAVSWARQAPGKGLEWVSLIDSNRNTVYAQSVRGRFTISRDNVKNTVYLQMNSLKPEDTAVYYCAKGIWGSTLTGQGTQVTVSS
notes: Alpaca nanobody expressed in E. coli, purified on HisTrap and detected with anti-His antibody; also called PD-L1-1 heavy chain single-domain antibody; P1
EC50 [1]: 0.0421 µg/mL and 3.48 nM
EC50 [2]: 0.00825 µg/mL
Kd [3]: 2.96 nM
koff [3]: 0.00532 s⁻¹
kon [3]: 1.8e+06 M⁻¹ s⁻¹
IC50 [4]: 0.0626 µg/mL
IC50 [5]: 0.477 µg/mL
IC50 [6]: 2.32 µg/mL
EC50 [7]: 0.0606 µg/mL
IC50 [8]: 5.8 µg/mL
binding result (HAS): no binding (tested: 0.2 µg)
binding result (BSA): no binding (tested: 0.2 µg)
Kd [9]: 3.39 nM
koff [9]: 0.00563 s⁻¹
kon [9]: 1.66e+06 M⁻¹ s⁻¹

B2: PDL1-1v4 (VHH)
VHH: B1 VHH with Q1E, T19R, V74S, K86R, P87A, T105W, Q110T
notes: Humanized PDL1-1, His-tagged
Kd [10]: 1320 nM
EC50 [11]: 4 µg/mL

B3: PDL1-1v7 (VHH)
VHH: B1 VHH with Q1E, Q5L, T19R, V74S, K86R, T105W, Q110T
notes: Humanized PDL1-1, His-tagged
Kd [10]: 10.9 nM
EC50 [11]: 0.028 µg/mL

B4: PDL1-1v9 (VHH)
VHH: B1 VHH with Q1E, Q5L, T19R, V74S, K86R, P87A, T105W
notes: Humanized PDL1-1, His-tagged
Kd [10]: 12.1 nM
EC50 [11]: 0.026 µg/mL

B5: PDL1-1v1 (VHH)
VHH: B1 VHH with Q1E, Q5L, T19R, V74S, K86R, P87A, T105W, Q110T
notes: Humanized PDL1-1, His-tagged, from 293-F
Kd [10]: 13.1 nM
EC50 [11]: 0.0251 µg/mL
EC50 [12]: 0.0275 µg/mL

B6: PDL1-3 (VHH)
VHH: QVQLQESGGGLVQPGGSLRLSCAGSGSIFRITPVAWYRQAPEKQRELVAVITDNGSTDYGDFVKGRFTISRDNAKNTVYLQMNSLKPEDTAVYYCNSRARPVRWTWGQGTQVTVSS
notes: Alpaca nanobody expressed in E. coli, His-tagged
EC50 [2]: 0.0128 µg/mL
IC50 [4]: 0.0406 µg/mL
IC50 [6]: 1.31 µg/mL
EC50 [7]: 0.073 µg/mL
binding result (HAS): no binding (tested: 0.2 µg)
binding result (BSA): no binding (tested: 0.2 µg)

B7: PDL1-14 (VHH)
VHH: QVQLQESGGGLVQPGGSLRLSCAASGIISDINMVAWYRQAPGKQRELVAKIFRGGSTYYTDFVKGRFTISRENAKNTVYLQMNSLKPDDTAVYYCNARIQIRADRDYSDYWGQGTQVTVSS
notes: as for B6
EC50 [13]: 0.123 µg/mL
binding result (HAS): no binding (tested: 0.2 µg)
binding result (BSA): no binding (tested: 0.2 µg)

B8: PDL1-13 (VHH)
VHH: QVQLQESGGGLVQPGGSLRLSCAASGFTFSTSFVSWVRQAPGKGLEWVSRISPGGASTSYADSVKGRFTISRDNAENTLYLQMNSLKPEDTALYYCAREIYSGRFSGFDYWGQGTQVTVSS
notes: as for B6
EC50 [13]: 0.0661 µg/mL
binding result (HAS): no binding (tested: 0.2 µg)
binding result (BSA): no binding (tested: 0.2 µg)
